{"source": "the nanobody polyreactivity screen of Harvey et al. (2022)"}
{"assay": "yeast display, Sf9 membrane polyspecificity reagent, FACS + sequencing; frameworks hold sequencing errors", "method_in_brief": "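Genes from sorted yeast were amplified by colony PCR, read by MiSeq 2 × 250 sequencing and filtered on CDR length. These cells carried a synthetic nanobody library in Saccharomyces cerevisiae BJ5465 and were sorted by FACS into low and high (top ~1%) gates on anti-HA and streptavidin fluorescence. Polyreactivity is labelled according to the gate of origin.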"}
{"sequence": "QVQLVESGGGLVQAGCSLRLSCAASGRTFSSYAMGWYRQSPGKERELVAAINRGGGSTYYADSVKGRFTISRDNAKNTVYLQMNSLKPEDTAVYYCNARSKRTYEYDYWGQGTQVTVSS", "polyreactivity (PSR sort gate)": "high polyreactivity"}
{"sequence": "QVQLVESGGGLVQAGCSLRLSCAASGRTFYPYAMGWYRQAPRKERELVAAINWSGTSTYYADSVKGRFTISRDNAKNTVYLQMNSLKTEDTAVYYCAAKQYPVLHYSLTEADMDYWGQGTQVTVSS", "polyreactivity (PSR sort gate)": "low polyreactivity"}
{"sequence": "QVQLVESGGGLVQAGCSLRLSCAASGRTFYTVYARGWYRQAPGKERELVAAITKDGTTTYYADSVKGRFTISRDNAKNTVYIEMNSLKQEDTAVYYCNADVSQPWGGGEYNYWGQGTQVTVSS", "polyreactivity (PSR sort gate)": "high polyreactivity"}
{"sequence": "QVQLVESGGGLVQAGCSLRLSCAASGSIFALYDMGWYRQAPGKERELVAAISYRGGRTYYADSVKGRFTISRDNAKNTVYLQMNSLKPEDTAVYYCATDFPGNFDYWGQGTQVTVSS", "polyreactivity (PSR sort gate)": "low polyreactivity"}
{"sequence": "QVQLVESGGGLVQAGCSLRLSCAASGSIFGWYAMGWYRQAPGTERELVAAITLIGGSTYYADSVKGRFTISRDNAKNTVYLQMNSLKPEDTAVYYCNAVWYWGDMDYWGQGTQVTVSS", "polyreactivity (PSR sort gate)": "low polyreactivity"}
{"sequence": "QVQLVESGGGLVQAGCSLRLSCAASGSIFKQNTMGWYRQAPGKERELVAAISSGGSTYYADSVKGRFTISRDNAKNTVYLQMNSLKPEDTAVYYCAAVTVIGGEYDYWGQGTQVTVSS", "polyreactivity (PSR sort gate)": "low polyreactivity"}
{"sequence": "QVQLVESGGGLVQAGCSLRLSCAASGSIFKRYTMGWYRQAPGKERELVAAISSRGGSTYYADSVKGRFTISRDNAKNTVYLQMNILKPEDTAVYYCNTKLHDGYGGWRYDYWGQGTQVTVSS", "polyreactivity (PSR sort gate)": "high polyreactivity"}
{"sequence": "QVQLVESGGGLVQAGCSLRLSCAASGSIFTNYGMGWYRQAPGKERELVADIRARSGSTYYADSVKGRFTISRDNAKNTVYLQMNSLKPEDTAVYYCAARRTSYRFDYSAGYRYGYWGQGTQVTVSS", "polyreactivity (PSR sort gate)": "high polyreactivity"}
{"sequence": "QVQLVESGGGLVQAGCSLRLSCAASGSIFVNKAMGWYRQAPGKERELVAAISSRSSRTFYADSVKGRFTISRDNSKNTVYLQMNSLKPEDTAVYYCAARRRLAWGQGTQVTVSS", "polyreactivity (PSR sort gate)": "high polyreactivity"}
{"sequence": "QVQLVESGGGLVQAGCSLRLSCAASGSIFYGYAMGWYRQAPGKERELVAAISYSGDRTYYADSVKGRFTISRDNAKNSVYLQMNSLKPEDTAVYYCAAQRRYGDDYWGQGTQVTVSS", "polyreactivity (PSR sort gate)": "high polyreactivity"}
{"sequence": "QVQLVESGGGLVQAGCSLRLSCAASGSIVDPYAMGWYRQAPRKEREWVAAISGSGGSTYYADSVKGRFTISRDNAKNTVYLQMNSLKPVDTSVYYCAAADAWWGRRYKYYHWGQGTQVTVSS", "polyreactivity (PSR sort gate)": "low polyreactivity"}
{"sequence": "QVQLVESGGGLVQAGCSLRLSCAASGSIYPYAMGWYRQAPGKERELVDAISFSDDRTYYADSVKGRFTISRDIAKNNVYVQMNSLKPEDTAFYYCDAYYFSADEYEYVYWGQGTQVTLSS", "polyreactivity (PSR sort gate)": "high polyreactivity"}
{"sequence": "QVQLVESGGGLVQAGCSLRLSCAASGSTFGENAMGWYRQAPGKERELVAVITSDTSTYYADSVKGRFTISRDNAKNTVYLQMNSLKPEDTAVYYCAADWGGLWFWYEYWGQGTQVTVSS", "polyreactivity (PSR sort gate)": "low polyreactivity"}
{"sequence": "QVQLVESGGGLVQAGCSLRLSCAASGSTFRPYAMGWYRQAPGKERELVAAINNSGGSTYYADSVKGRFTISRDNAKNTVYLQMNSLKPEDTAVYYCAAEWYYYFIIMNYWGQGTQVTVSS", "polyreactivity (PSR sort gate)": "high polyreactivity"}
{"sequence": "QVQLVESGGGLVQAGCSLRLSCAASGSTFYAYTKGGYRQAPGKERELVAAISWSDGTTYADSVKGRFTISRDNAKNTVYLQMNSLKPEDTAVYYCATDDVGPGLGYNYWGEGTQVTVSS", "polyreactivity (PSR sort gate)": "low polyreactivity"}
{"sequence": "QVQLVESGGGLVQAGCSLRLSCAASGSTFYYNAMGWYRQAPGKERELVAAITFTGGSTYADSVKGRFTISRDNAKNTVYLQLNSLKPEDTAVYYCAATIEGHDYLGTGYDYWGHGTQVTVSS", "polyreactivity (PSR sort gate)": "low polyreactivity"}
{"sequence": "QVQLVESGGGLVQAGCSLRLSCAASGSTLNSYFMGWYRQAPGKERELVATIRSGSSTNYADSVKGRFTISRDNAKNTVYLQMNILKPEDTAVYYCAADAYSLCYDSWGQGTQVTVSS", "polyreactivity (PSR sort gate)": "low polyreactivity"}
{"sequence": "QVQLVESGGGLVQAGCSLRLSCSASGSIFYSYAMGWYRQAPGKERELVAAITSVVSTNYADSVKGRFTISRDYAKNTVYLQMNRLKTEDTAVYYCAAGYLRLYYVCLDDSYGYDYWGQGTQVTVSS", "polyreactivity (PSR sort gate)": "low polyreactivity"}
{"sequence": "QVQLVESGGGLVQAGCSLRLSCSASGSTFVAYAMGWYRQAPGTERELVAANTTGGSTNYADSVKGRFTISRDNAKNTVYLQMNSLKPEDTAVYYCATDSSTTWLRRATSKGPGEYWGQGTQVTVSS", "polyreactivity (PSR sort gate)": "low polyreactivity"}
{"sequence": "QVQLVESGGGLVQAGCSLRLSSAASGFIYYRYAMGWYRQAHGKERELVAAISRSGGSTYYADSVKGRFTISRDNAKNTVYVQMNRLKPEDTAVYYCAADSGSLAPGNDYWGQGTQVTVSS", "polyreactivity (PSR sort gate)": "high polyreactivity"}
{"sequence": "QVQLVESGGGLVQAGCSLRLTCAASGFIYLSYGMGWNRQAPGKERELVASITSDGGSTYYADSVKGRFTISRDNAKYTVYLQMNSLKPEDTAVYYCAADSVSPWYYGWYYRYRGYGYCGQGTQVTVSS", "polyreactivity (PSR sort gate)": "low polyreactivity"}
{"sequence": "QVQLVESGGGLVQAGCSVRLSCAATGSSFVDNAMGWYRQAPGKERELVAANDGSADSTYYADSVKGRFTISRDNAKNTVYLQLNSLKPEATAVYYCAAVDYWTKFDYWGQGTQVTVSS", "polyreactivity (PSR sort gate)": "low polyreactivity"}
{"sequence": "QVQLVESGGGLVQAGDSLRLSCAASGLTFTYYAMGWYRQAPGKERELVAAITGSGDRTYYADSVKGRFTISRDNAKNTVYLQMNSLKPEDTAVYYCARDRPGRATGFDYWGPGTQVTVSS", "polyreactivity (PSR sort gate)": "high polyreactivity"}
{"sequence": "QVQLVESGGGLVQAGGCLRLSCAASGRTLGAYAMGWYRQAPGKEREFVASITYGGRTCYADSVKGRFTISRDNAMNTVFLQMNSLKPEDSAVYYCASKLPYRWYDYWGQGTQVTVSS", "polyreactivity (PSR sort gate)": "high polyreactivity"}
{"sequence": "QVQLVESGGGLVQAGGCLRLSCAASGSIFAPIAMGWYRQAPGKERDLVAAITSGVGSTDYADSVKGRFTISRDNAKNNVYLQMNSLKPEDTAVYYCAADSSYLTYWEYDYWGQGTQVTVSS", "polyreactivity (PSR sort gate)": "low polyreactivity"}
{"sequence": "QVQLVESGGGLVQAGGCLRLSCAASGSIFWGYAMGWYRPAPGKERELVAAITDSGGRTYYADSVKGRFTISRDNAKNTVYVQMNSQKPEDTAVYYCAADYYSQYYYYAVPDRDYWGQGTQVTVSS", "polyreactivity (PSR sort gate)": "low polyreactivity"}
{"sequence": "QVQLVESGGGLVQAGGCLRLSCAPSGFIFGGYAMGWDRPAPGKEREVVAAISSSGGSTYYADSVKGRFTISRDNAKNTVYLQMNSLKPEDTAVYYCAARIQSVSSGRWFDYWGQGTQVTVSS", "polyreactivity (PSR sort gate)": "high polyreactivity"}
{"sequence": "QVQLVESGGGLVQAGGGHRLSCAASGRTFTYNAMGWYRQAPGKERELVAAITSGGSTNYADSVKGRYTISRDNAKNTVYLQMNSLKPEDTAVYYCAADGDDYTTTEFDYWGQGTQVTVSS", "polyreactivity (PSR sort gate)": "low polyreactivity"}
{"sequence": "QVQLVESGGGLVQAGGGLRLSCAASGRIFSRNVMGWYRQAPGKERELVAAISASGGSTYYADSVKGRFTISRDNAKNTVYLQMNSLKPEDTAVYYCAARRYPGRTATYYSWGQGTQVTVSS", "polyreactivity (PSR sort gate)": "high polyreactivity"}
{"sequence": "QVQLVESGGGLVQAGGGLRLSCAASGRTFTYNAMGWYRQAPGKERELVAAITYDGGGTYADSVKGRFTISRDNAKNTVYLQMNSMKPEDSAVYYCNKGPDPGSFYDYWGQGTQVTVSS", "polyreactivity (PSR sort gate)": "low polyreactivity"}
{"sequence": "QVQLVESGGGLVQAGGGLRLSCAASGSIFRSNTMGWYRQAPGKERELVAGISYSGGSTYADSVKGRFTISRDNAKNTVYLQMNSLKPEDTAVYYCARRVYSYDVLYFSYYYWGQGTQVTVSS", "polyreactivity (PSR sort gate)": "low polyreactivity"}
{"sequence": "QVQLVESGGGLVQAGGIHRLSCPASGIIFYYYAMGWYRHAPGKESELVAAISWSGGSTYYADSVKGRFTISRDNAKYTVYLQMNSLKPEDTAVYYCAAAFSPGWWSRHTYDYDYWVQGTQVTVSS", "polyreactivity (PSR sort gate)": "high polyreactivity"}
